72 sequences from the supplement of paper PMC10567573 can be followed below.

± gives the standard deviation.

This data set is described as follows: protein stability index of a GFP-peptide fusion (GPS, HEK-293T) (PSI 1-6); higher = more stable.
[1] abbreviates: treatment: DMSO, c terminus: a fixed tail appended.
The mark [2] stands for this setting: treatment: MLN4924 1 uM, 8 h, c terminus: a fixed tail appended.
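Note: 24-mer peptide tiles fused after GFP, lentivirally expressed, FACS-sorted into six equal bins by GFP/DsRed ratio, decoded by Illumina sequencing, PSI is the read-weighted mean bin number.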

AYTQTQFHNLRNTLDGYGIHPKSI [NFE2L1] registered a protein stability index under setting [1] of 2.57 ± 0.3 and a protein stability index under setting [2] of 2.34 ± 0.26.
As for MVVIHKEIPTGKKDHECSECGKTF [ZNF232], the protein stability index stood at 3.07 ± 0.4 under setting [1] and 3.28 ± 0.2 under setting [2].
For ELPSALESHEVPGTLSMGVPQIFK [ZNF24], the protein stability index by setting is: under setting [1], 4.07 ± 0.12; under setting [2], 4.11 ± 0.13.
In the case of AAANKLFHYIPGTDILDLENQREN [PLEKHN1], the protein stability index runs as follows: under setting [1], 4.13 ± 0.3; under setting [2], 3.92 ± 0.43.
As to NIKANDYANAVLQALSNVPPLRNY [USP39], the protein stability index by setting is: under setting [1], 2.18 ± 0.21; under setting [2], 2.03 ± 0.32.
With QEPPTTDSQEAQSPGHSSAGQEGE [TOR1AIP2], the protein stability index turned out to be 5.67 ± 0.25 under setting [1] and 5.56 ± 0.26 under setting [2].
Turning to TKLLSGSYDCTVKLWDPVDGSVVR [WDR88], the protein stability index under setting [1] stood at 3.1 ± 0.33 and the protein stability index under setting [2] was 3.19 ± 0.26.
Consider LLFMTSRVRFGQQKRYQDWFQRQY [INTS3], for which the protein stability index stood at 1.99 ± 0.58 under setting [1] and 2.24 ± 0.64 under setting [2].
For WHPKPYCQALPYGPGYWMCCHRSQ [FBXO34], the protein stability index by setting is: under setting [1], 2.32 ± 0.37; under setting [2], 2.08 ± 0.14.
GSAAGHVLVKDNGLGCKDLDLIFH [TENT5C]: the protein stability index under setting [1] was 2.59 ± 0.32 and the protein stability index under setting [2] came out at 2.84 ± 0.44.
Taken in the same sequence, the figures for IIVRTTNKKYYKKFSIPDLDRHQL [DPCD] were 2.29 ± 0.55 and 2.14 ± 0.29.
In the same order, the values of PVDPDSQADTVHSNPELDVLLLGS [DNAAF3] are 4.95 ± 0.11 and 5 ± 0.19.
In the same order, the values of NPIIYSFRNPDVQSAIWRMLTGRR [OR3A1] are 2.51 ± 0.41 and 2.58 ± 0.36.
With LFYDDYYEDGEVEEEADSCFGDDE [CDC34], the protein stability index stood at 4.79 ± 0.17 under setting [1] and 4.78 ± 0.3 under setting [2].
As for ISEEGHHYLIFDLVTGGELFEDIV [CAMK2A], the protein stability index amounted to 2.47 ± 0.62 under setting [1] and 2.13 ± 0.29 under setting [2].
TRFTEEYQLFEELGKGAFSVVRRC [CAMK2A]: the protein stability index runs as follows: under setting [1], 2.63 ± 0.39; under setting [2], 2.54 ± 0.26.
For LKENNFQPYPLPHVRHMAYQLCHA [CLK3], the protein stability index is 2.46 ± 0.12 under setting [1] and 2.21 ± 0.26 under setting [2].
Regarding FGNRIKVLRSRIRFIHLVTGCVLG [POMT2], the protein stability index is, setting by setting: under setting [1], 2.57 ± 0.38; under setting [2], 2.23 ± 0.45.
For the sequence PSGHSDAQTLAMMLQEQLDAINEE [PPFIA4], the protein stability index by setting is: under setting [1], 4.94 ± 0.44; under setting [2], 4.46 ± 0.21.
Take NMAGVTFRKFIPKCSKIVIDFDSI [DCTD]: the protein stability index is 2.5 ± 0.39 under setting [1] and 1.95 ± 0.32 under setting [2].
On to VAIFGPPNTLYEGGYFKAHIKFPI [UBE2R2], for which the protein stability index under setting [1] stood at 3.24 ± 1 and the protein stability index under setting [2] worked out at 2.95 ± 0.97.
With PIETLIRDMLLSGSSFNWPYMAIQ [NR2F2], the protein stability index under setting [1] amounted to 3.34 ± 0.18 and the protein stability index under setting [2] came to 2.95 ± 0.62.
On to ALVDGQIFCLHGGLSPSIDTLDHI [PPP2CA], for which the protein stability index under setting [1] was 1.9 ± 0.19 and the protein stability index under setting [2] worked out at 2.19 ± 0.38.
The sequence VIRWIAHDTEIRKVHMKDVMSALW [GAN] displayed a protein stability index under setting [1] of 2.38 ± 0.63 and a protein stability index under setting [2] of 2.08 ± 0.2.
Consider ITSETTSTTTTTHITKTVKGGISE [EPB41L3], for which the protein stability index reads like this: under setting [1], 5.06 ± 0.22; under setting [2], 4.69 ± 0.79.
Regarding SLAQGPDAATTDELSSLGSDSEAN [TBC1D10A], the protein stability index is, setting by setting: under setting [1], 5.56 ± 0.19; under setting [2], 5.5 ± 0.18.
Consider SFMLQDRAKGLLGTTVTFDDLMGI [FEM1C], for which the protein stability index was 2.49 ± 0.24 under setting [1] and 2.66 ± 0.14 under setting [2].
Sequence IFDEDHDEMVIVKDIDMFSMCEHH [GCH1] yielded a protein stability index under setting [1] of 3.16 ± 0.24 and a protein stability index under setting [2] of 3.31 ± 0.13.
As to FDDYSATLPLTLIVILENIAVAWI [SLC6A17], the protein stability index is, setting by setting: under setting [1], 2.69 ± 0.44; under setting [2], 3.28 ± 0.71.
As for LGMVGLFGTIISGIQLLIVEYKDI [SLC35F2], the protein stability index came to 3.16 ± 0.42 under setting [1] and 3.53 ± 0.41 under setting [2].
Take AIRRFQSMPVRLLGHSPVLRNITN [CDC25B]: the protein stability index was 2.42 ± 0.35 under setting [1] and 2.24 ± 0.22 under setting [2].
Turning to WSIVGMAVVKGIQSSGKVMYFSSL [SLC6A17], the protein stability index runs as follows: under setting [1], 2.94 ± 0.68; under setting [2], 2.6 ± 0.78.
In the case of VAGVLPDIEQFFNIGDSSSGLIQT [SPNS1], the protein stability index is, setting by setting: under setting [1], 3.16 ± 0.25; under setting [2], 3.32 ± 0.43.
For PWVKELQDSKEMKQLLDSKIGFEI [ZNF449], the protein stability index is, setting by setting: under setting [1], 2.9 ± 0.49; under setting [2], 3.01 ± 0.65.
The sequence VFLASGAVSVMKKCRKLEDPQSSS [SLC19A2] gave a protein stability index under setting [1] of 2.81 ± 0.043 and a protein stability index under setting [2] of 2.98 ± 0.15.
For the sequence PRGRAHLLPNPYQQDFLGLPEELR [C22orf15], the protein stability index is 3.92 ± 0.24 under setting [1] and 4.31 ± 0.11 under setting [2].
In the same order, the values of CVTLMQGHEGSVSSCHFARDSSFL [WDR88] are 2.28 ± 0.57 and 2.39 ± 0.13.
Take LFEGLGRDKAEELLQLPDTKVGSF [SLA]: the protein stability index came out at 3.82 ± 0.28 under setting [1] and 4.13 ± 0.15 under setting [2].
On to DPGADSEKSTVVEGGEVRFNGKGK [DLX1], for which the protein stability index is, setting by setting: under setting [1], 5.51 ± 0.22; under setting [2], 5.58 ± 0.18.
Turning to TSKNSSTQDPSQPNSTKNQSLPKA [LCOR], the protein stability index under setting [1] came to 5.31 ± 0.16 and the protein stability index under setting [2] stood at 5.44 ± 0.12.
As to DYSASEYRWHINFTTFFIDCMAAL [SCD], the protein stability index by setting is: under setting [1], 2.54 ± 0.17; under setting [2], 2.63 ± 0.47.
LPELLLGALPVGSNLTSNLASLVS [RETREG3]: the protein stability index came out at 2.17 ± 0.2 under setting [1] and 2.17 ± 0.28 under setting [2].
SLLNFLPEGVNKLKISPVTLKEAY [TENT5C] showed a protein stability index under setting [1] of 2.27 ± 0.23 and a protein stability index under setting [2] of 2.41 ± 0.12.
In the same order, the values of SGHKLYIFLFQDILVLTRPVTRNE [NET1] are 2.6 ± 0.56 and 2.41 ± 0.48.
In the case of IEKEVFPIMAKEGQLYAMELQGFW [GMPPB], the protein stability index worked out at 2.77 ± 0.44 under setting [1] and 2.27 ± 0.37 under setting [2].
As for NLQSLKTPTLKVFMHENLYFTNRK [DCAF4], the protein stability index reads like this: under setting [1], 2.73 ± 0.26; under setting [2], 2.65 ± 0.2.
Taken in the same sequence, the figures for LEKDTMDNWDEKKLEEVVNKKHGE [ZC3H15] were 5.54 ± 0.095 and 5.46 ± 0.19.
In the same order, the values of RRDPSIPIYGLRQSILLNTRLQDC [C22orf31] are 2.74 ± 0.55 and 2.37 ± 0.31.
Taken in the same sequence, the figures for PGGETEALTRLERHLERKAWVANF [CRY1] were 3.04 ± 0.36 and 3.07 ± 0.39.
Take AYVLSKYQYFVCPVEYRSDVNSFV [CDS1]: the protein stability index stood at 2.6 ± 0.46 under setting [1] and 2.68 ± 0.75 under setting [2].
Regarding SAIYKWITDNFCYFRHADPTWQNS [FOXJ1], the protein stability index under setting [2] was 2.57 ± 0.4.
Consider MEGLAGYVYKAASEGKVLTLAALL [FEM1B], for which the protein stability index was 2.22 ± 0.31 under setting [1] and 2.09 ± 0.44 under setting [2].
With HLKSSRNSTSVKKKSSRNIFSIVF [P2RY14], the protein stability index came out at 2.39 ± 0.48 under setting [1] and 2.13 ± 0.55 under setting [2].
For ARLNGSVASYILASHNGISYKDLD [TENT5D], the protein stability index under setting [1] came out at 2.85 ± 0.47 and the protein stability index under setting [2] came out at 2.68 ± 0.21.
As to LKTQSLEGKRKAFYTCASHVTVVI [OR4A15], the protein stability index by setting is: under setting [1], 2.91 ± 0.35; under setting [2], 3.24 ± 0.46.
On to IKDKEAPLHVAQTRLYLRSHRPNM [TEKT4], for which the protein stability index is, setting by setting: under setting [1], 3.23 ± 0.25; under setting [2], 3.23 ± 0.25.
Turning to AELLIFSVPIVYEKYKTQIDHYVG [RTN3], the protein stability index under setting [1] amounted to 2.65 ± 0.77 and the protein stability index under setting [2] came to 2.61 ± 0.56.
Turning to AASSAKMGLVETKLAIIPGGGGTQ [AUH], the protein stability index runs as follows: under setting [1], 3.83 ± 0.66; under setting [2], 4.61 ± 0.51.
Consider SETGSTGALETRSLKDHKVSFLRS [C2CD2L], for which the protein stability index under setting [1] was 4.48 ± 0.29 and the protein stability index under setting [2] stood at 4.46 ± 0.19.
Consider PGSFWGLCQVAQEALASAGASCCG [VENTX], for which the protein stability index was determined as 2.41 ± 0.4 under setting [1] and 2.54 ± 0.22 under setting [2].
Taken in the same sequence, the figures for GEKEEEDKDDEEKPKIEDVGSDEE [HSP90AB1] were 5.6 ± 0.24 and 5.77 ± 0.12.
AEEYEDSSTKPPKSRRKAALSSPR [INTS3] returned a protein stability index under setting [1] of 5.23 ± 0.12 and a protein stability index under setting [2] of 5.27 ± 0.27.
In the same order, the values of PGPSPDVQLATLAQRVKEVLPHVP [AUP1] are 4.14 ± 0.32 and 4.14 ± 0.13.
Consider SRPELLQPLNFVRFYLPLLIHQHE [GLT8D2], for which the protein stability index runs as follows: under setting [1], 3.09 ± 0.33; under setting [2], 3.14 ± 0.59.
Turning to FPKDTLMNLHVYISEHEHFTDFNA [CLPTM1], the protein stability index by setting is: under setting [1], 2.37 ± 0.24; under setting [2], 1.99 ± 0.42.
With VVPVLVFPPDLVFRADQRSGPRQL [MOSPD3], the protein stability index is 2.27 ± 0.38 under setting [1] and 2.41 ± 0.25 under setting [2].
With GAAGRSHHLDEDEERERIERVRRI [KCTD10], the protein stability index under setting [1] came out at 5.31 ± 0.23 and the protein stability index under setting [2] is 5.07 ± 0.46.
As to GISVPSGLFVPSLLCGAAFGRLVA [CLCN6], the protein stability index amounted to 2.62 ± 1.2 under setting [1] and 2.51 ± 0.97 under setting [2].
For the sequence SIVSGGYGGSGDGLIPTGSGRHPS [ARFIP2], the protein stability index was 3.96 ± 0.19 under setting [1] and 4.34 ± 0.42 under setting [2].
Taken in the same sequence, the figures for LEAQPYEAVFLRAVKLYNSGDFRS [P3H4] were 2.42 ± 0.27 and 2.23 ± 0.28.
Taken in the same sequence, the figures for RGKNKMAAQNCRKRKLDTILNLER [NFE2L1] were 3.57 ± 0.33 and 3.63 ± 0.24.
As to VHVIGVEEPSVGASMLFDIREST [ZNF8], the protein stability index (treatment: DMSO, c terminus: native) was determined as 2.3 ± 0.27 and the protein stability index (treatment: MLN4924 1 uM, 8 h, c terminus: native) amounted to 2.38 ± 0.17.
